Laboratory results from the supplement of paper PMC5998384.

What was measured:
HeLa Kyoto [1] = experiment: melting temperature (median over replicates), in situ; higher = more thermally stable
HeLa Kyoto [2] = experiment: solubility change mitosis vs G1/S (difference of NP-40 vs SDS log2 ratios) (log2 ratio difference); higher = more soluble in mitosis
HeLa Kyoto [3] = experiment: solubility in G1/S (NP-40 vs SDS abundance) (log2 ratio); higher = more soluble; details: cell cycle stage: G1/S
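For melting temperature (median over replicates), in situ in this document: HeLa Kyoto cells synchronized by double thymidine or nocodazole block, proteins quantified by TMT10plex mass spectrometry, three independent biological replicates.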
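For solubility change mitosis vs G1/S (difference of NP-40 vs SDS log2 ratios) in this document: synchronized HeLa Kyoto cells (double thymidine block for G1/S, nocodazole release for mitosis), protein amounts in NP-40 versus SDS lysates quantified by mass spectrometry, three biological replicates.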
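For solubility in G1/S (NP-40 vs SDS abundance) in this document: HeLa Kyoto cells arrested at G1/S by double thymidine block, proteins quantified by TMT10plex mass spectrometry in mild NP-40 versus SDS extracts, three biological replicates.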

Sequence | melting temperature (HeLa Kyoto [1]; cell cycle stage: G1/S) [°C] | solubility change mitosis (log2) (HeLa Kyoto [2]) | solubility in G1/S (log2) (HeLa Kyoto [3]) | melting temperature (HeLa Kyoto [1]; cell cycle stage: mitosis) [°C]
MSAARESHPHGVKRSASPDDDLGSSNWEAADLGNEERKQKFLRLMGAGKKEHTGRLVIGDHKSTSHFRTGEEDKKINEELESQYQQSMDSKLSGRYRRHCGLGFSEVEDHDGEGDVAGDDDDDDDDSPDPESPDDSESDSESEKEESAEELQAAEHPDEVEDPKNKKDAKSNYKMMFVKSSGS [SMAP] | 55 | 0.413 | 0.338 | –
MSDKPDMAEIEKFDKSKLKKTETQEKNPLPSKETIEQEKQAGES [TMSB4X] | 52.9 | 0.302 | -0.978 | 50.4
MSDLEDDETPQLSAHALAALQEFYAEQKQQIEPGEDDKYNIGIIEENWQLSQFWYSQETALQLAQEAIAAVGEGGRIACVSAPSVYQKLRELCRENFSIYIFEYDKRFAMYGEEFIFYDYNNPLDLPERIAAHSFDIVIADPPYLSEECLRKTSETVKYLTRGKILLCTGAIMEEQAAELLGVKMCTFVPRHTRNLANEFRCYVNYDSGLDCGI [N6AMT2] | – | 0.0973 | -0.331 | 50.6
MSGSVLFTAGERWRCFLTPSRSSLYWALHNFCCRKKSTTPKKITPNVTFCDENAKEPENALDKLFSSEQQASILHVLNTASTKELEAFRLLRGRRSINIVEHRENFGPFQNLESLMNVPLFKYKSTVQVCNSILCPKTGREKRKSPENRFLRKLLKPDIERERLKAVNSIISIVFGTRRIAWAHLDRKLTVLDWQQSDRWSLMRGIYSSSVYLEEISSIISKMPKADFYVLEKTGLSIQNSSLFPILLHFHIMEAMLYALLNKTFAQDGQHQVLSMNRNAVGKHFELMIGDSRTSGKELVKQFLFDSILKADPRVFFPSDKIVHYRQMFLSTELQRVEELYDSLLQAIAFYELAVFDSQP [TEFM] | 50.9 | 0.119 | -0.375 | 49.1
MSLKMDNRDVAGKANRWFGVAPPKSGKMNMNILHQEELIAQKKREIEAKMEQKAKQNQVASPQPPHPGEITNAHNSSCISNKFANDGSFLQQFLKLQKAQTSTDAPTSAPSAPPSTPTPSAGKRSLLISRRTGLGLASLPGPVKSYSHAKQLPVAHRPSVFQSPDEDEEEDYEQWLEIKVSPPEGAETRKVIEKLARFVAEGGPELEKVAMEDYKDNPAFAFLHDKNSREFLYYRKKVAEIRKEAQKSQAASQKVSPPEDEEVKNLAEKLARFIADGGPEVETIALQNNRENQAFSFLYEPNSQGYKYYRQKLEEFRKAKASSTGSFTAPDPGLKRKSPPEALSGSLPPATTCPASSTPAPTIIPAPAAPGKPASAATVKRKRKSRWGPEEDKVELPPAELVQRDVDASPSPLSVQDLKGLGYEKGKPVGLVGVTELSDAQKKQLKEQQEMQQMYDMIMQHKRAMQDMQLLWEKAVQQHQHGYDSDEEVDSELGTWEHQLRRMEMDKTREWAEQLTKMGRGKHFIGDFLPPDELEKFMETFKALKEGREPDYSEYKEFKLTVENIGYQMLMKMGWKEGEGLGSEGQGIKNPVNKGTTTVDGAGFGIDRPAELSKEDDEYEAFRKRMMLAYRFRPNPLNNPRRPYY [SUGP1] | 47.3 | 0.255 | 0.221 | 50.8
MSLVIRNLQRVIPIRRAPLRSKIEIVRRILGVQKFDLGIICVDNKNIQHINRIYRDRNVPTDVLSFPFHEHLKAGEFPQPDFPDDYNLGDIFLGVEYIFHQCKENEDYNDVLTVTATHGLCHLLGFTHGTEAEWQQMFQKEKAVLDELGRRTGTRLQPLTRGLFGGS [YBEY] | 45.4 | 0.0965 | -0.21 | 49.7
MSQAEFEKAAEEVRHLKTKPSDEEMLFIYGHYKQATVGDINTERPGMLDFTGKAKWDAWNELKGTSKEDAMKAYINKVEELKKKYGI [DBI] | 53.7 | 0.148 | -0.236 | 53.8
MSSKKAKTKTTKKRPQRATSNVFAMFDQSQIQEFKEAFNMIDQNRDGFIDKEDLHDMLASLGKNPTDAYLDAMMNEAPGPINFTMFLTMFGEKLNGTDPEDVIRNAFACFDEEATGTIQEDYLRELLTTMGDRFTDEEVDELYREAPIDKKGNFNYIEFTRILKHGAKDKDD [MYL12B] | 54 | 0.538 | 0.24 | 52.7
MSSPMPDCTSKCRSLKHALDVLSVVTKGSENQIKAFLSSHCYNAATIKDVFGRNALHLVSSCGKKGVLDWLIQKGVDLLVKDKESGWTALHRSIFYGHIDCVWSLLKHGVSLYIQDKEGLSALDLVMKDRPTHVVFKNTDPTDVYTWGDNTNFTLGHGSQNSKHHPELVDLFSRSGIYIKQVVLCKFHSVFLSQKGQVYTCGHGPGGRLGHGDEQTCLVPRLVEGLNGHNCSQVAAAKDHTVVLTEDGCVYTFGLNIFHQLGIIPPPSSCNVPRQIQAKYLKGRTIIGVAAGRFHTVLWTREAVYTMGLNGGQLGCLLDPNGEKCVTAPRQVSALHHKDIALSLVAASDGATVCVTTRGDIYLLADYQCKKMASKQLNLKKVLVSGGHMEYKVDPEHLKENGGQKICILAMDGAGRVFCWRSVNSSLKQCRWAYPRQVFISDIALNRNEILFVTQDGEGFRGRWFEEKRKSSEKKEILSNLHNSSSDVSYVSDINSVYERIRLEKLTFAHRAVSVSTDPSGCNFAILQSDPKTSLYEIPAVSSSSFFEEFGKLLREADEMDSIHDVTFQVGNRLFPAHKYILAVHSDFFQKLFLSDGNTSEFTDIYQKDEDSAGCHLFVVEKVHPDMFEYLLQFIYTDTCDFLTHGFKPRIHLNKNPEEYQGTLNSHLNKVNFHEDDNQKSAFEVYKSNQAQTVSERQKSKPKSCKKGKNIREDDPVRMLQTVAKKFDFSNLSSRLDGVRFENEKINVIAKNTGNKLKLSQKKCSFLCDVTMKSVDGKEFPCHKCVLCARLEYFHSMLSSSWIEASSCAALEMPIHSDILKVILDYLYTDEAVVIKESQNVDFICSVLVVADQLLITRLKEICEVALTEKLTLKNAAMLLEFAAMYSAKQLKLSCLQFIGLNMAALLEARSLDVLSDGVLKDLSEFYRKMIPAMDRRVITPYQDGPDISYLEVEDGDIFLKEEINMEQNHSETMFKKAKTKAKKKPRKRSDSSGGYNLSDIIQSPSSTGLLKSGKTNSVESLPELLTSDSEGSYAGVGSPRDLQSPDFTTGFHSDKIEAKVKPYVNGTSPVYSREDLKPWEKSPILKISAPQPIPSNRIDTTSSASWVAGSFSPVSPPVVDLRTIMEIEESRQKCGATPKSHLGKTVSHGVKLSQKQRKMIALTTKENNSGMNSMETVLFTPSKAPKPVNAWASSLHSVSSKSFRDFLLEEKKSVTSHSSGDHVKKVSFKGIENSQAPKIVRCSTHGTPGPEGNHISDLPLLDSPNPWLSSSVTAPSMVAPVTFASIVEEELQQEAALIRSREKPLALIQIEEHAIQDLLVFYEAFGNPEEFVIVERTPQGPLAVPMWNKHGC [IBTK] | 52.7 | 0.351 | -0.61 | 50.8
MSSSSSSPRETYEEDREYESQAKRLKTEEGEIDYSAEEGENRREATPRGGGDGGGGGRSFSQPEAGGSHHKVSVSPVVHVRGLCESVVEADLVEALEKFGTICYVMMMPFKRQALVEFENIDSAKECVTFAADEPVYIAGQQAFFNYSTSKRITRPGNTDDPSGGNKVLLLSIQNPLYPITVDVLYTVCNPVGKVQRIVIFKRNGIQAMVEFESVLCAQKAKAALNGADIYAGCCTLKIEYARPTRLNVIRNDNDSWDYTKPYLGRRDRGKGRQRQAILGEHPSSFRHDGYGSHGPLLPLPSRYRMGSRDTPELVAYPLPQASSSYMHGGNPSGSVVMVSGLHQLKMNCSRVFNLFCLYGNIEKVKFMKTIPGTALVEMGDEYAVERAVTHLNNVKLFGKRLNVCVSKQHSVVPSQIFELEDGTSSYKDFAMSKNNRFTSAGQASKNIIQPPSCVLHYYNVPLCVTEETFTKLCNDHEVLTFIKYKVFDAKPSAKTLSGLLEWECKTDAVEALTALNHYQIRVPNGSNPYTLKLCFSTSSHL [HNRPLL] | 47.6 | -0.0114 | -0.0931 | 49.7
MSVAGLKKQFHKATQKVSEKVGGAEGTKLDDDFKEMERKVDVTSRAVMEIMTKTIEYLQPNPASRAKLSMINTMSKIRGQEKGPGYPQAEALLAEAMLKFGRELGDDCNFGPALGEVGEAMRELSEVKDSLDIEVKQNFIDPLQNLHDKDLREIQHHLKKLEGRRLDFDYKKKRQGKIPDEELRQALEKFDESKEIAESSMFNLLEMDIEQVSQLSALVQAQLEYHKQAVQILQQVTVRLEERIRQASSQPRREYQPKPRMSLEFPTGDSTQPNGGLSHTGTPKPSGVQMDQPCCRALYDFEPENEGELGFKEGDIITLTNQIDENWYEGMLHGHSGFFPINYVEILVALPH [SH3GL2] | 48.7 | -0.159 | 0.586 | 49.2
